Assay results: publication PMC8266564

Target: T1, GFP-dRNH1 (catalytically inactive RNase H1) (Homo sapiens, UniProt O60930 28-286, D210N)
T1 sequence: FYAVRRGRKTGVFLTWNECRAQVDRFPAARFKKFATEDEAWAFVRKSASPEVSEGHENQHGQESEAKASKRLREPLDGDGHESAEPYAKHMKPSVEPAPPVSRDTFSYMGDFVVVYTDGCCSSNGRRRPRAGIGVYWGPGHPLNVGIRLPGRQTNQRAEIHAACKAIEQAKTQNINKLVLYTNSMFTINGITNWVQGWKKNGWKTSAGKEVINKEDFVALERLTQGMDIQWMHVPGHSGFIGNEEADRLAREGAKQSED
Assay: EMSA

B1: 60-bp RNA-DNA hybrid (RNA60/DNA60) (DNA:RNA)
RNA: GUUGUAACGACGGCCAGUGCCAAGUUCGGAUCGACGCUCGACUCUAGAGGAUCCCGGUAC
DNA: GTACCGGGATCCTCTAGAGTCGAGCGTCGATCCGAACTTGGCACTGGCCGTCGTTACAAC
Does B1 bind?
Result: binds
